Data published in US20240076396A1 (Regeneron, published 2024).

Key:
[1] = molecular target: T1, Jurkat/hCD20 cells (human CD20, no GITR; negative control cell line) (human, UniProt P11836 1-297); assay: flow cytometry on Jurkat/hCD20 control cells; max MFI over secondary antibody alone
T1 construct: whole, on cells; Control cell line without engineered GITR; the only named engineered protein on it is hCD20
T1 sequence (looked up): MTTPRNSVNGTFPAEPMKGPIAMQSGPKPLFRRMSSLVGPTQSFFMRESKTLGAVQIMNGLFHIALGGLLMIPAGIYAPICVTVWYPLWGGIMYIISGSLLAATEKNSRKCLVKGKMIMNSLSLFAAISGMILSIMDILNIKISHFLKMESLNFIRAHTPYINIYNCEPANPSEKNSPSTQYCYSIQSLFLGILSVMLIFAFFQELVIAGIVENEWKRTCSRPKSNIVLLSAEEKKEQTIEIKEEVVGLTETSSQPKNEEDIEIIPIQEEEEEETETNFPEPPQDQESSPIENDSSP
Experimental: (§1) Flow cytometry was used to evaluate mAb1 binding to Jurkat/hCD20/hGITR cells and Jurkat/hCD20/MfGITR cells. Jurkat/hCD20 cells were used as a negative control cell line for GITR binding. Cells were added to a 96-well V-bottom plate (2×10⁵ to 4×10⁵ cells/well) and incubated in Fc block solution, followed by successive incubation on ice with primary antibody (mAb1 or IgG1 isotype control) at final concentrations ranging from 18 pM to 300 nM and a secondary antibody (AF647-conjugated anti-human IgG) at 5 μg/mL. Cells were then stained with LIVE/DEAD Fixable Green Dead Cell Stain according to the manufacturer's instructions. […] Data were analyzed with Flow.lo software. For EC₅₀ (effective concentration at 50% activity) determinations, measured geometric MFI values were analyzed using a 4-parameter logistic equation over a 9-point response curve with GraphPad Prism. The fold binding was determined by taking the ratio of the highest MFI on the curve to the MFI of the wells containing secondary antibody only.
^a The maximum MFI was the highest mean MFI value within the concentration range tested (18 pM to 300 nM). ^b Fold binding was calculated as the maximum MFI above background (secondary antibody alone). h, Human; Mf, Macaca fascicularis (cynomolgus monkey); ND, Not determined because concentration-dependent binding was not observed

[2] = molecular target: T2, cynomolgus monkey GITR expressed on the cell surface (Macaca fascicularis (cynomolgus monkey)); assay: flow cytometry, AF647-conjugated antibody on CD4+ CD69+ cynomolgus monkey primary T cells, donor 58945
T2 construct: whole, on cells; also called MfGITR; Jurkat/hCD20/MfGITR cells
Experimental: FIG. 7 depicts antibody binding to CD69+ cynomolgus monkey primary T-cells. Primary cynomolgus monkey T-cells from 4 separate donors were stimulated in vitro with anti-CD2/anti-CD3/anti-CD28-coated beads. Cell-surface binding of AF647-conjugated mAb1 and AF647-conjugated IgG1 isotype control at a range of concentrations (8 pM to 200 nM) on CD69⁺ and CD69⁻ cynomolgus monkey primary CD4⁺ and CD8⁺ T-cells was detected using flow cytometry. Fluorescence intensity was plotted as geometric MFI. Mf, Macaca fascicularis (cynomolgus monkey)
Peripheral blood mononuclear cells (PBMC) were isolated from human or cynomolgus monkey whole blood (4 donors each) using density centrifugation through Ficoll-Paque PLUS in SepMate tubes (for human PBMC) or 50 mL conical tubes (for cynomolgus monkey PBMC) and transferred to a fresh conical tube for incubation in Red Blood Cell (RBC) Lysis Buffer. […] After 4 days, activation beads were removed from the culture using a MACSiMAG Separator, and cells were collected and counted.
Flow cytometry was used to evaluate mAb1 binding to human or cynomolgus monkey T-cells in activated PBMC. […] Data were analyzed with Flowio software. For EC₅₀ determinations, measured geometric MFI values were analyzed using a 4-parameter logistic equation over a 12-point response curve with GraphPad Prism.

[3] = molecular target: T3, human GITR expressed on the cell surface (human, UniProt Q9Y5U5 26-241); assay: cell-based or functional assay
T3 sequence: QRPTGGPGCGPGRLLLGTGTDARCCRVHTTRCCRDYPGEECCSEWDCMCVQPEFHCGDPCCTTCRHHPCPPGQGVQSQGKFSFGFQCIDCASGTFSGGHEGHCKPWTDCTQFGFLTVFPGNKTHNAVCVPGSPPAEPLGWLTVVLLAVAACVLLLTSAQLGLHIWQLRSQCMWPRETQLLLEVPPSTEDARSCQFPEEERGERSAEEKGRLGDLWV

[4] = molecular target: T3, human GITR expressed on the cell surface; assay: cell-based or functional assay; remark: listed apart in the source
[5] = molecular target: T1, Jurkat/hCD20 cells (human CD20, no …); assay: flow cytometry on Jurkat/hCD20 cells
Experimental: FIG. 5A, FIG. 5B, and FIG. 5C depict cell-surface binding of mAb1 and IgG1 isotype control at a range of concentrations (18 pM to 300 nM) on Jurkat/hCD20 (FIG. 5A), Jurkat/hCD20/hGITR (FIG. 5B), and Jurkat/hCD20/MfGITR (FIG. 5C) cells. Binding was detected using an Alexa647-labeled anti-human IgG by flow cytometry. Fluorescence intensity was plotted as geometric MFI. h, Human; Mf, Macaca fascicularis (cynomolgus monkey).
as §1, with “μg/mL.” for “μg/mL. Cells were then stained with LIVE/DEAD Fixable Green Dead Cell Stain according to the manufacturer's instructions.”

B1: mAb1 (antibody, human IgG1, kappa, V domains shown)
VH: QVQLQESGPGLVKPSETLSLTCIVSGGSISGYFWNWIRQPPGKGLEWIGYIYYSGTTIYNPSLKSRFTISLDTSKNQFSLKLTSVTAADTAVYYCARESYDPSPRYFDHWGQGTLVTVSS
VL: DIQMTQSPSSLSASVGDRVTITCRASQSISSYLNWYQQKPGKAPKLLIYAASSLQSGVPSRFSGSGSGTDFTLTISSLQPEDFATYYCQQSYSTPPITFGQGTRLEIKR
notes: Human IgG1; N101D variant of CompAb1; also called N101D Variant; N101D
[1]
  Fold Binding: 1.06 fold
[2]
  EC50 (read off the curve): ~4000 pM
[3]
  EC50, anti-CD3-mediated primary CD4+ T-cell proliferation, Donor 1900G: 430 pM
  EC50, anti-CD3-mediated primary CD4+ T-cell proliferation, Donor 2000U: 39.1 pM
  EC50, anti-CD3-mediated primary CD4+ T-cell proliferation, Donor 3600Y: 17200 pM
  EC50, anti-CD3-mediated primary CD4+ T-cell proliferation, Donor 3800U: 107 pM
  EC50, anti-CD3-mediated primary CD4+ T-cell proliferation, Donor 34001: 193 pM
  Fold Change in Activity, anti-CD3-mediated primary CD4+ T-cell proliferation, Donor 1900G: 3.14 fold
  Fold Change in Activity, anti-CD3-mediated primary CD4+ T-cell proliferation, Donor 2000U: 2.45 fold
  Fold Change in Activity, anti-CD3-mediated primary CD4+ T-cell proliferation, Donor 3600Y: 2.3 fold
  Fold Change in Activity, anti-CD3-mediated primary CD4+ T-cell proliferation, Donor 3800U: 2.45 fold
  Fold Change in Activity, anti-CD3-mediated primary CD4+ T-cell proliferation, Donor 34001: 2.62 fold
  Fold Change in Activity, anti-CD3-mediated primary CD4+ T-cell proliferation, Donor 41003: 2.54 fold
[4]
  EC50, ADCC against human primary CD8+ T-cells Donor 0200R, NK Donor 05001: 139 pM
  EC50, ADCC against human primary CD8+ T-cells Donor 0400N, NK Donor 04003: 76.4 pM
  EC50, ADCC against human primary CD8+ T-cells Donor 0400N, NK Donor 05001: 116 pM
  EC50, ADCC against human primary CD8+ T-cells Donor 5100X, NK Donor 04003: 128 pM
  EC50, ADCC against human primary CD8+ T-cells Donor 5100X, NK Donor 05001: 95.1 pM
  EC50, ADCC against human primary Tregs Donor 0200R, NK Donor 04003: 39.9 pM
  EC50, ADCC against human primary Tregs Donor 0200R, NK Donor 05001: 64.7 pM
  EC50, ADCC against human primary Tregs Donor 0400N, NK Donor 04003: 37.2 pM
  EC50, ADCC against human primary Tregs Donor 0400N, NK Donor 05001: 44.9 pM
  EC50, ADCC against human primary Tregs Donor 5100X, NK Donor 04003: 88.8 pM
  EC50, ADCC against human primary Tregs Donor 5100X, NK Donor 05001: 83.4 pM
[5]
  binding result: no binding (tested: 18 pM to 300 nM)
